The source of these data is the RNAGym collection of RNA variant scans (doi:10.1073/pnas.2313332121).

Fewer inactive variants are shown than the library holds.

The chains are these.
B1: TPR 5TU (parent)
chain: GGAUCUUCUCGAUCUAACAAAAAAGACAAAUCUGCCACAAAGCUUGAGAGCAUCUUCGGAUGCAGAGGCGGCAGCCUUCGGUGGCGCGAUAGCGCCAACGUUCUCAACUAUGACACGCAAAACGCGUGCUCCGUUGAAUGGAGUUUAUCAUG

The variants in this data set derive from B1. Put plainly: polymerase ribozyme fitness, log enrichment relative to wild type (log ratio); higher = more active; in vitro selection for triplet polymerase activity. The method in brief:
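Mutant libraries of both subunits of a heterodimeric triplet polymerase ribozyme were PCR-built, transcribed, and selected once in triplicate, with frozen incubation at −7 °C and capture of gel-excised extended constructs on streptavidin beads before RT-PCR. Illumina sequencing of input and output libraries was filtered to genotypes with ≥10 input reads and ≥1 read per output. Fitness is the logarithm of genotype enrichment over wild-type enrichment, using inverse-variance-weighted replicate averages. The logarithm is base 2.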
For the variant GGUUCUUCUUGAUCUAACAAAAAACACAAAUCUGCCACAAAGCUUGAGAGCGUCUUCGGAUGCAGAGGCGGCAGCCUUCGGUGGCGCCAUAGCGCCUACCUUCUCAACUAUGACACGCAAAACGCGUGCUCCGUUGAAUGGAGGUUAUCAUG [A3U C10U G25C A52G G88C A97U G100C U144G], the “polymerase ribozyme fitness (log ratio)” value was not above -4.2.
For GGAACUUCUCGAUCUAACAAAAAAGACAAAUCUGCCACAAAGCUUGAGAGCAUCUUCGGAUGCAGAGGCGGCAGCCUUCGGUGUUGCGAUAGCGCCAACGUUCUCAACUAUGACACUCAAAACGCGUGCUCCGUUGAAUGGAGUCUAUCAUG [U4A G84U C85U G117U U145C], the “polymerase ribozyme fitness (log ratio)” value was -2.29.
Regarding GGAUCUUCUCGAUCUAACAAAAAAGACAAAUAUGCCACAAAGCUUGAGAGCAUCUACGGAUGCAGAGGCGGCAGCCUUCGGUGGCGCGAUAGCGCCAACGUUGUCAUCUAUGACACGCAAAACGCGUGCUCCGUUGAAUGGAGUUUAUCAUG [C32A U56A C103G A107U], the “polymerase ribozyme fitness (log ratio)” value is not above -4.2.
For GGAUCUUCUCGAUCUAACAAAAAAGACAAAUCUGCCACAAAGCUUGAGAGCAUCAUCGGAUGCAGAGGCGGCAGCGUUCGGUGGCGCGAUAGUGCCAACGUUGUCAACUAUGACACGCAAAACGCGUGCUCCGUUGAAUGGAAUUUAUCUUG [U55A C76G C93U C103G G143A A150U], the “polymerase ribozyme fitness (log ratio)” value was not above -4.2.
For the variant GGAUCUUCUCGAUCUAACAAAAAAGACAAAUCUGCCAUAAAGCUUGAGAGCAUCUUCGGAUGCAGAGGCGGCAGCCUUCGGUGGCGCGAUUGCGCCAACGUUCUCAACUAUGACACGCAAAACGCGUGCUCCGUUGAAUGGAGUUUAUCAUG [C38U A91U], the “polymerase ribozyme fitness (log ratio)” value was not above -4.2.
Then GGAUCUUCUCGAUCUAACAAAAACGACAAAUCUGCCACAAAGCUUGAGAGCAUCUUCCGAUGCAGAGGCGGGAGCCUUCGGUGGCGCGAUAGCGCCAACGUUCUCAACUAUGACACGCAAAACGCGUGCGCCGUUGAAUGGAGUUUAUCAUG [A24C G58C C72G U130G], with not above -4.2.
For the variant GGAUCUUCUCGAUCUAACUAAAAAGACAAAUCUGCCAGAAAGGUUGAGAGCAUCUUCGGAUGCAGAGGCGGCAGCCUUCCGUGGCGUGAUAGCGCCAACGUUCUCAACUAUGACACGCAAAACGCGUGCUCCGUUGAAUGGAGUUUAUGAUG [A19U C38G C43G G80C C87U C149G], the “polymerase ribozyme fitness (log ratio)” value was not above -4.2.
Then GGAUCUUCUCGAUCUAACAAAAACGACAAAUCUGCCACAAAGCUUGAGAGCAUCAUCGGGUGCAGAGGCGGCAGCCUUCGGUGGCGCGAUAGCGCCUACGUUCUCAACUAUGACACGCAAAACGCGUGCUCCGUUGAAUGGAGUUUAUCAUG [A24C U55A A60G A97U], with not above -4.2.
For GGCUCUUCUCCAUCUAACAAAAAAGACAAAUCUGCCACAAAGCUUGAGAGCAUCUUCGGAUGCAGAGGCGGCAGCUUUCGGUGGCGCGAUAGAGCCAACGUUCUCAACUAUGACACGCAAAACGCGUGCUCCGUUGAAUGGAGUUUAUCAUG [A3C G11C C76U C93A] the value was -3.68; for GGAUCUUCUCGAUCUAACAAAACAGACAAAUCUGCCACAACGCUUGAGAGCAUGUUCGGAUGCAGAGGCGGCAGCCAUCGGUGGCGCGAUGGCGCCAACGUUCUGAACUAUGACACGCAAAACGCAUGCUCCGUUAGAUGGAGUUUAUCAUG [A23C A41C C54G U77A A91G C105G G126A G136A A137G], not above -4.2.
Then GGAUCUUCUCGAUCUAACAAAAAAGUCAAAUCUGCCACAAAGCUUGAGAGCAUCUUCGGAUGCAGAGGCGGCAGCCUUCGGUGGCGCGAUAGCGCCAACGUUAUCAACUAUGACACGCAAAACGCGUGCUCCGUUGAAUGGAGUUUAUCAUG [A26U C103A], with not above -4.2; and GGAUCUUCUCGAUCUAACAAAAAAGACAAAUCUGCCACAAAGCUUGAGAACAUCUUCUGAUGCAGAGGCGGCAGCCUUCGGUGGCGCGAUAGCGUCAACGUUCUCAACUAUGACACGGAAAACGCGUGCUCCGUUGAAUGGAGUUUAUCAUG [G50A G58U C95U C118G], with -1.92; and GGAUCUUCUCGAUCUAACAAAAAAGACAAAUCUGCCACAAAGCUUGAGAGCAUCUUCGGAUGUAGAGGCGGCAGCCUUUGGUGGCGCCAGAGCGACAAUGUUCUCAUCUAUGACACGCAAAACGCGUGCUCCGUUGAAUGGAGUUUAUCAUG [C63U C79U G88C U90G C95A C99U A107U], with not above -4.2.
GGAUCUUCUCGAUCUAACAAAAAAGACAAAUCUGCCACAAAGCUUGAGAGCAUCUUCGGAUGCAGAGGCGGCAGCCUUCGGUGGCGCGAUAGCGCCAACGUUCUCAACUAUGACGCGCAAAACGCGUGCUCCGUUGAAUUGAGUUUAUCAUG [A115G G140U]: the “polymerase ribozyme fitness (log ratio)” value was -3.41.
For GGAUCUUCUCGAUCUAACAAAAAAGACAAAUCUGCCACAAACCUUGAGAGCAUCUUCGGAUGCAGAGGCGGUAGCCUUCGGUGGCGCGAUACCGCUAACGUUCUCAACUAUGACACGCAAAACGCGUGCUCCGUUGAAUGGAGUUUAUCAUG [G42C C72U G92C C96U] the value was not above -4.2.
For the variant GGAUCUUCUCGAUCUAACAAAAAAGACAAAUCUGGCACAAAGCUUGAGAGCAUGUUCGGAUGCAGAGGCGGCAGCCUUUGGUGGCGCGAUAGCGCCAACGUUCUCAACUAUGACACGCAAAACGCGAGCUCCGUUGAAUGGAGUUUAUCAUG [C35G C54G C79U U127A], the “polymerase ribozyme fitness (log ratio)” value is not above -4.2.
Then GGAUCUUCUCGAUCUAACAAAAAAGACAAAUCUGCCACAAAGCUUGAGAGCAUCUUCUGAUGCAGAGGCGGCAGCCUUCGGUGGCGCGAUAGCGCCAACGUUCUCAACUAUGACACGCAAAAUCCGUGCUCCGUUGAAUGGAGUUUAUCAUG [G58U C123U G124C], with -0.593.
Then GGAUCUUCUCGAUCUAACAAAAAAGACAAAUCUGCCACGAAGCUUGAGAGCAUCUUCGGAUGCAGAGGCGGCAGCCUUCGGUGACGCGAUAGCGCCAACGUUCUCAACUAUGACACGCAAAACGCGUGCUCCGUUUAAUGGAGUUUAUCAUG [A39G G84A G136U], with -4.02.
Take GGAUCUUCUCGAUCUAACAAAAAAGACAAAUCUGCCACUAAGCUUGAGAGCAUCUUCGGAUGCAGAGGCGGCAGCCUUCGGUGGCGCGGUAGCGCCAACGUUCUCAACUAUGACACGCAAAACGCGUGCUCCGUUGAAUGGAGUUUAUCAUG [A39U A89G]: the “polymerase ribozyme fitness (log ratio)” value is -2.99.
